In the nanobody polyreactivity screen of Harvey et al. (2022):

Assay: yeast display, Sf9 membrane polyspecificity reagent, FACS + sequencing; frameworks hold sequencing errors
Method in brief: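 A nanobody's polyreactivity label depends on the gate it was sorted from. Yeast display cells were stained with 10% biotinylated, detergent-solubilized Sf9 membrane reagent for 1 hour at 4 °C, enriched on streptavidin microbeads and sorted by FACS. The low and high (top ~1%) gates were set on anti-HA fluorescence for expression and streptavidin fluorescence for reagent binding.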

QVQLVESGGGLVQAGGSLRLSCAASGRIFYYNGMGWYRQAPGKERELVAAISRGGSTYYADSVKGRFTISRDNAKNTVYLQMNSLKPEDTAVYYCAARWKPPYWGRYYYWGQGTQVTVSS
polyreactivity (PSR sort gate): high polyreactivity

QVQLLESGRGLVQAGGSLRLSCAPSGSIFSGMVMGWYIQAPGKERELVAAISSRGGNTYYADSVKGRFTISRDNAKNTVYLQMNSLITEDTAVYYCNKVKFNWYEWGQGTQVSVSS
polyreactivity (PSR sort gate): high polyreactivity

QVQLVESGGGLVQAGGSLRLSCAASGFTFDGYAMGWDRQAPGNERELVAAFSDSGDSTYYADSVKGRFTISRDNAKNTVYLQMNSLTPEDTAVYYCAAGLGYYWSDYFAYDSCGQGTQVTVSS
polyreactivity (PSR sort gate): low polyreactivity

QVQLVESGGGLVQAGGSLRLSCAASGSTFFNYAMGWYRQAPGKERELVAAITGSGGRTYYADSVKGRFTISRDNAKNTVYLQMNSLKPEDTAVYYCAASATYDPHDYWGQGTQVTVSS
polyreactivity (PSR sort gate): high polyreactivity

QVQLVESGAGLVHAGGSLRLSCAAYGRTFLAYAKGWYRQAHGKERELVAAISKSGGRTYYADSVKGRFTISRDYAKHTVYLQMNSLKPEDTAVYYCAADKQAYVTDDYWGQGTQVTVSS
polyreactivity (PSR sort gate): high polyreactivity

QVQLVESGGGLVQARGSLRLSCAASGRIFSPYAMGWNRQAPWKERELVASITSGGTTNYADSVKGRFTISRDNAKNTVYLQMNSLKTEDTAVYYCATTYSYDDKFTSTLVDPDYGYWGQGTQVTVSS
polyreactivity (PSR sort gate): low polyreactivity

QVQLVESGGGLVQAGGSLRLSCAASGSIFWYNDMGWYRQAPGKEREFVAAITWDDGSTYYADSVKGRFTISRDNAKNTVYLQMNSLKPEDTAVYYCAAYVWYYDPASGWFITDYDYWGQGTQVTVSS
polyreactivity (PSR sort gate): high polyreactivity

QVQLVESGGGLVQAGGSLRVSCAASGFIFLAYAMGWYSQAPGKERELFAAIDTSGGSTYYADSVKGRFTSTRDNAKNTVYLQMNSLKPEDSAVYYCAADDYDQYYFDYDYWGQGTQVTVSS
polyreactivity (PSR sort gate): low polyreactivity

QVQLVESGGGLVQAGGSLRLSCAASGRNFGVYAMGWYRQAPGKERELVARIRGSGASTYYADSVKGRFTISRDNAKNTVYLQMNSLKPEDTAVYYCAAVTVAGYDYWGQGTQVTVSS
polyreactivity (PSR sort gate): high polyreactivity

QVQLVESGGGLVQAGGSLRLSCAASGLTFVIYAMGWYRQAPGKERELVARITWSGGSTYYADSVKGRFTISRDNAKNTVYLQMNSLKPEETAVDYCAARRFYYYNAGYDSWGQGTQVTVSS
polyreactivity (PSR sort gate): low polyreactivity

QVQLVESGGGLVQAGGSLRLSCAASGFTFYGNAMGWYRQAPGKERELVAAISLSDGYADSVKGRFTISRDNAKNTVYLLMNSLKPEDTAVYYCAKDRTDSKRREHDYWGQGTQVTVSS
polyreactivity (PSR sort gate): low polyreactivity

QVQLVESGGGLDQAGGSLPLTCAASGSIFDPNAMGWYRQAPGKERELVANNTIGGRTNYADSVKGRFTISRDNPKNTVYLQMNSLKPDDTAVFYCAKDSPYTSVTVLAPIIYESWGKGTQVTVSS
polyreactivity (PSR sort gate): low polyreactivity

QVQLVESGGGLVQAGGSLRLSCAASGNTFYLYAMGWYRQAPGKERELVASITGGTRTNYADSVKGRFTISRDNAKNTVYLQMNSLKPEDTAVYYCAKTYPRTVGKYLSRGGYYYWGQGTQVTVSS
polyreactivity (PSR sort gate): high polyreactivity

QVQLVESGGGLVQAGGSLRLSCAASGFTFVYNAMGWYRQAPGKERELVAAITSGGNTYYADSVKGRFTISRDNAKNTVYLQMNSLKPEDTAVYYCAKVQNGQWSTSRVPGDYQYNYWGQGTQVTVSS
polyreactivity (PSR sort gate): high polyreactivity

QVQLVESGGGLVQAGGSLRLSCAASGSIFGPNAMRWYRQAPGKERELVAAINGGTGTFYADSLKGRFTISRDNAKNTVYLQMNSLKPEDTAVYYCAADYGTHYFVRYYYWGQGTQVTVSS
polyreactivity (PSR sort gate): high polyreactivity

QVQLVESGGGLVQAGGSLRLSCAASGSTFPDNAMGWYRQAPGKERELVAAISWSGGSTNYADSVKGRFTISRDNAKNTVYLQMNSLKPEDTAVYYCNADDASHYYFRDEYWGLGTQVTVSS
polyreactivity (PSR sort gate): low polyreactivity

QVQLVESGGGLVQAGGSLRLSCAASGSTFTIYAMGWYRQAPGKERELVAGITRVGSTNYADSVKGRFTISRDNAKYTVYLQMNSLKPEDTAVYYCARRDLFQAGYEYWGQGTQVTVSS
polyreactivity (PSR sort gate): low polyreactivity

QVQLVESGGGLVQAGGSLRLSCAASGRIFRYNAMGWYRQAPGKERELVAAISTSGTRTFYADSVKGRFTISRDNAMKTVYLQMNSVKPEDTAVYYCNKVAGPGKLGPYYYWGQGTQVTVSS
polyreactivity (PSR sort gate): high polyreactivity

QVHLVESGGGLVQAGGSLRLSCAASGYIFTIYAMGWYRQAPGKERELVAAITSGGSTSYADSVKGRFTISRDNAKNTVYLQMNSLKPVDTAVYYCAAASVYAGLYYLWVYTGYDYWGQGTQVTVSS
polyreactivity (PSR sort gate): high polyreactivity

QVQLVESGGGLVQAGGSLRLSCAASGLIFFNYYAMGWYRQAPGKERELVAAIRYGGGSTYYADSVKGRFTISRDNAKNTVYLLMNSLKPEDTAVDYCAARFKGYYRYGYWGQGTQVTVSS
polyreactivity (PSR sort gate): high polyreactivity

QVQLVESGGGLVQAGGSLRLSCAASGFTFSTYAMGWYRQAPGKESELVAAITRSGGSTYYADSVKGRFTISRDIEKNTVYLQMNSLKQEDTAVYYCATDASFYDPDLYPYGYDYWGQGTQVTVSS
polyreactivity (PSR sort gate): high polyreactivity

QVQLVESGGGLVQAGGSLRLSCAASGRIFKYYVMGWYRQAPGKERELVAGISSSGGSTYYADSVKGRFTISRDNAKNTVYLQMNSLKPEDTAVYYCAADYTFAYYNVKMDYWGQGTQVTVSS
polyreactivity (PSR sort gate): low polyreactivity

QVQLVESGGGLVQAGGSLRLSCAASGRIFLYYTMGWYRQAPGKERELVATIRSGDSTNYADSVKGRFTISRDNAKNTVYLQMNSLKPEDTAVYYCAADWDIFQQGANGAPYDYWGQGTQVTVSS
polyreactivity (PSR sort gate): low polyreactivity

QVQLVDSGGGLVQAGGSLRLSCDASGITFYDYAMGLYRQAPGKEMEFVASITSSGGYTYYADSVKGRFTISRDNAKNTVYLQMNILKPEDTSVYYCNVRYKRNRWQYDYWGQGTQVTVSS
polyreactivity (PSR sort gate): high polyreactivity

QVQLVESGGGLDQAGGSLRLSCAASGIIFGVNVMGWYRQAPGKERELVATITWRGDSTYYADSVKGRFTISRDNAKNTVYLQMNSLKPEDTAVYYCARGARTGVREDDYWGQGTQVTLSS
polyreactivity (PSR sort gate): low polyreactivity

QVQLVESGGGLVQAGGSLRLSCADSGFIIFRYAMGWYRQAPGKERELVAAITDDGSTYADSVKGRFTISRDNAKNTVYLQMNSLKPEDTAVYYCNVQSKSSYWWFGYDYWGQRTQVTVSS
polyreactivity (PSR sort gate): low polyreactivity

QVQLVESGGGLDQAGGSLRLSCAASGSIFYYYVMGWYRQAPGKERELVAAITNSDRTYYADSVKGRFTISRDNAKNTVYLQMNSLKLEDTAVYYCNADWFDQYYRDGLRGRYGYWRQGTQVTVSS
polyreactivity (PSR sort gate): low polyreactivity

QVQIVESGGGLVQAGGSLRLSCAASGRIFAGYAIGWYRQAPGKERELVAAISSGGSTYYADSVKGRFTISRDNAKNTVYLQMNSLKPEDTAVYYCSAVGRRVYGTKFYYWGQGTQVTFSS
polyreactivity (PSR sort gate): high polyreactivity

QVQLVESGGGLVQAGGSLRLSCAASGRIFYKYAMGWYRQAPGKERELVAAISSGGNTNYADSVKGRFTISRDNAKNTVYLQMNSLKPEDTAVYYCNAKRAYYRGYYPDNYWGQGTQVTVSS
polyreactivity (PSR sort gate): high polyreactivity

QVQLVESGGGLVQAGGSLRLSCAASGSIYRYAMGSYRQAPGKERELVAAINFNGGRTYYADSVKGRFTISRDNAKNTVYLQMNSLKPEDTAVYYCAAVRSSNQGGFDYWGQGTQVTVSS
polyreactivity (PSR sort gate): high polyreactivity

QVQLVESGGGLVQAGGSLRLSCAASGITFRQYAMGWYRQAPGKERELVAVITSRGGTTYYADSVKGRFTISRDNAKNTVYLQMNSLKPEDTAVYYCAKVYGFPYYRAYFPERRNGYWGQGTQVTVSS
polyreactivity (PSR sort gate): high polyreactivity

QVHLVETVRGLLQAGGSLRISCAASGRSFKRYAMGWYRQAPGKERELVAAITRSGGSTYYADSVKGRFTISRDNAKNTVYLQMNSLKPEDTAVYYCATRSYNNELEYWGQGSQVTVSS
polyreactivity (PSR sort gate): high polyreactivity

QVQLVESGGGLVQAGGSLRLSCAASGNTFYRNAMGWYRQAPGKERELVAAISTTGVSTYYADSVKGRFTISRDNAKNTVYVQMTSLKPEDTAVYYCAAEIIGYHTIYDYWGQGTQVTVSS
polyreactivity (PSR sort gate): low polyreactivity

QVQLVESGGGLVQAGGSLRLSCAASGSTFNGYAMGWYRQAPGKERELVAAISWRGGSTYYADSVKGRFTISRDNAKNTVYLQMNSLKPEDTAVYYCNTLLYYGHRYYYWGQGTQVTVSS
polyreactivity (PSR sort gate): high polyreactivity

QVQLVESGGGLVQAGGSLRLSCAASGSIITWNAMGWYRQAPGKERELVAALDWDGGSTYYADSVKGRFTISRDNAKNTVYFQMNRLKPEDTAVYYCAATYGWYTGRYPSGHYYYWGQGTQVTVSS
polyreactivity (PSR sort gate): low polyreactivity

QVQLVESGGGIVQAGGSLRLRCAASGSTFYVYHMGWDRPAPGKERELVAAISSGAGSTYYADSVKGRFTISRDNAKNTVYLQMNSLKRKIPRSITALLFTVNGGGSRSHDYWAQGTQVTVSS
polyreactivity (PSR sort gate): low polyreactivity

QVQLVESGGGLVQAGGSLRLSCAASGSIFRIYAMGWYRPAPGKERELVAAISRGGGSTYYADSVKGRFTISRDNAKNTVYLQMNSLKPEDTAVYYCAARSPYRYYYWGQGTQVTVSS
polyreactivity (PSR sort gate): high polyreactivity

QVQLVESGGGLVQAGGSLRLSCAASGRTFGKNAMGWYRQAPGKERELVAAISWSGGRTYYADSVKGRFTISRDNAKNTVYLQMNSLKPEDTAVYYCATASYRNPSDYWGQGTQVTVSS
polyreactivity (PSR sort gate): high polyreactivity

QVQLVESGGGLVQAGGSLRLRCAASGLIFPYYAMGWYRQAPGKERELVAGITSDGSTNYADSVKGRFTLSRDNAKNTVYLQMNSLKPEDTAVYYCNARGVYFWWRLDYWGQGTQVTVSS
polyreactivity (PSR sort gate): low polyreactivity

QVQLVESGGGLVQAGGSLRLSCAASGRIFAYYAMGWYRQAPGKEREMVAAISRSGGSTYYADSVKGRFPISRDNAKNTVYLQMNSLKPEDTAVYYCAASLKVPYATMNYWGQGTQVTVSS
polyreactivity (PSR sort gate): high polyreactivity

QVQLVESGGGLVQAGGSLRLSCAASGSFFSTYAMGWYRQAPGKERELVAAISVSGSSTYYADSVKGLFTISRDNAKNTVYLQMNSLKPEDTAVYYCNKAFRSVRPRRRYDYWGQGTQVTVSS
polyreactivity (PSR sort gate): low polyreactivity

QVQLVESGGGLVQAGCSLRLSCSASGRIYYAMGWYRQADGKERELVATITRSGGRTYYADSVKGRFTISRDNAKITVYLQINSLKPEDTAVYYCAKQFGRPYVGSNSYCLTYDSWGEGTQVTVSS
polyreactivity (PSR sort gate): low polyreactivity

QVQLVESGGGLVQAGGSLRLSCAASGSTFVHYAMGWYRQAPGKEREFVASITRSGTSTYYADSVKGRFTISRDNAKNNVYLQMNSLKPEDTAVYYCNAELLGARQYWYYRYYYWGQGTQVTVSS
polyreactivity (PSR sort gate): high polyreactivity
